Measurements published in paper PMC12412469 (2025).

T1: Recombinant Human VEGF165 (human, UniProt P15692-4 1-191)
T1 chain: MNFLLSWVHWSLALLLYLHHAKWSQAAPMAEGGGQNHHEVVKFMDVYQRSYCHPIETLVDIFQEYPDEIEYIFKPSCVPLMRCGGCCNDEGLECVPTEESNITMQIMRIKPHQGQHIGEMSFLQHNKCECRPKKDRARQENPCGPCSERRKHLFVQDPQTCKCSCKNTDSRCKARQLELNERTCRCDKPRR

T2: Biotinylated Recombinant Human IL-7R alpha/CD127 Fc Chimera Avi-tag (human, UniProt P16871 21-239, biotin (biotinylated Avi-tag))
T2 chain: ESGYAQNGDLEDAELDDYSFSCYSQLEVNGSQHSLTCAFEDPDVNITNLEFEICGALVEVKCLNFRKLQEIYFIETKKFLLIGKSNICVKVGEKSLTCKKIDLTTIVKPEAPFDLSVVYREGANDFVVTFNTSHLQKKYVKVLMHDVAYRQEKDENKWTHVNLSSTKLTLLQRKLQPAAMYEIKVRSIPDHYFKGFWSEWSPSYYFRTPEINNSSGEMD


Columns and labels:
[1] = target: T1, Recombinant Human VEGF165
[2] = target: T1, Recombinant Human VEGF165; experiment: SPR
[3] = target: T1, Recombinant Human VEGF165; experiment: SPR; rhVEGF165 amine-coupled to a CM5 chip; designs injected (multi-cycle kinetics, 60 s injection, 60 s dissociation); PBS with 0.05% Tween-20; 25 °C; 10 µL/min; 1:1 binding assumed, linearization method
[4] = target: T2, Biotinylated Recombinant Human IL-7R …; experiment: SPR

| koff [2] [s⁻¹] | koff [4] [s⁻¹] | further results | Binder |
| --- | --- | --- | --- |
| 0.0006 | – | other [1]: 50%; Kd [2]: 14 nM | Sima3.2 (designed binder) STNISPKQGLDKAKYFSGKWYLTHVLIKDPKIVSQFCASFTPRESDGTVKIAVYLYLAIKKTSDYAIGEGKLESSGLQYTATSKVVDKKKAVLKELDERHSYTVTVLEADDSSALTHITVREGSKDYGDYYLVLTHQKDAEPSAKVKSAVTQAGLQLSQFVGTKDLGCQYDDQFTSL |
| 0.0309 | – | proliferation of the VEGF-sensitive leukemia cell line U937 (CellTiter-Blue, 72 h), 1 to 100 µg/mL of the binder, percent of untreated control [1]: 50%; Kd [3]: 190 nM | Sam0.7 (designed binder) LPTAEEVQKLMARYIELMDVGDIEAIVQMYADDATVEAPFGAPPIHGRERIAYFYRRMLGGGIARATLTGPVRASHNGTGAMPFRVEYVFNGQPFAMDVRVEMRFDEHGRIQTMQAYWDWVNLSVREP |
| – | 0.375 | – | 5NLC scaffold (unmutated template) (other) MAQIAERLASLRSQLPPSVQLIAVSKNHPAAAIREAYAAGQRHFGENRVQEAIAKQAELTDLPDLTWHLLGKLQSNKARKAVEHFDWIHSVDSWALAERLDRIAGELGRSPKLCLQVKLLPDPNKAGWDPADLRAELPQLSQLQQVQIRGLMVIAPLGLTAAETQALFAQARTFAAELQQQAPQLRLTELSMGMSSDWPLAVAEGATWIRVGTQLFGPRSL |
| – | 0.0821 | – | 6YUD scaffold (unmutated template) (other) MKFAVIDRKNFTLIHFEIEKPIKPEILKEIEIPSVDTRKGVVISGRGPIWLHCFLAHKYAHTPFVAVYDPRLGAVVVQSHSELREGDVIDVVVEEILKGGVRHV |
